Source: article PMC5282582

T1: γ subunit of human NAD-dependent isocitrate dehydrogenase (human, UniProt P51553 40-393)
T1 construct: γ subunit of human NAD-IDH (IDH3G); the N-terminal 39 residues (mitochondrial signal peptide) were removed during construction; a TEV protease site stood between the subunit and the His6 tag; residues of the site may remain after cleavage; also called IDH3G; regulatory subunit; not shown: His6, C-terminal, cleaved
T1 sequence (looked up): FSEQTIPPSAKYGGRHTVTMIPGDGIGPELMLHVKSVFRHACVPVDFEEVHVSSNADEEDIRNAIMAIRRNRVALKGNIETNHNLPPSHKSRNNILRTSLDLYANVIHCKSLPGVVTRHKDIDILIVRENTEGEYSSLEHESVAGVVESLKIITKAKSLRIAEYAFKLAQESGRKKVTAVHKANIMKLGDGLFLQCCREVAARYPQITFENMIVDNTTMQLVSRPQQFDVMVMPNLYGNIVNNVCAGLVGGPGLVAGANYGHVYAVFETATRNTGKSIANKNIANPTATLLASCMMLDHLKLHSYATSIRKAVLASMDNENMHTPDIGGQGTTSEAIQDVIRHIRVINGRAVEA


How the values were obtained:
[1] = biological target: the molecule itself; assay: SEC-MALS; 100 μl of purified protein injected at 2 mg/ml (low concentration); Superdex 200 10/300 GL, room temperature, 10 mM HEPES pH 7.4, 200 mM NaCl, 5 mM β-ME, 0.4 ml/min
[2] = biological target: β subunit of human NAD-dependent isocitrate dehydrogenase (human); assay: SDS-PAGE of the co-purified complex; subunits co-expressed in E. coli, purified as a complex by the His6 tag of β or γ (Ni-NTA, TEV cleavage, second Ni-NTA, gel filtration); 12% SDS-PAGE with Coomassie blue staining, intensity of the two bands; settings: both partners purified
[3] = biological target: T1, γ subunit of human NAD-dependent …; assay: as above; settings: both partners purified

β subunit of human NAD-dependent isocitrate dehydrogenase (human), sequence (chain, as listed by the source): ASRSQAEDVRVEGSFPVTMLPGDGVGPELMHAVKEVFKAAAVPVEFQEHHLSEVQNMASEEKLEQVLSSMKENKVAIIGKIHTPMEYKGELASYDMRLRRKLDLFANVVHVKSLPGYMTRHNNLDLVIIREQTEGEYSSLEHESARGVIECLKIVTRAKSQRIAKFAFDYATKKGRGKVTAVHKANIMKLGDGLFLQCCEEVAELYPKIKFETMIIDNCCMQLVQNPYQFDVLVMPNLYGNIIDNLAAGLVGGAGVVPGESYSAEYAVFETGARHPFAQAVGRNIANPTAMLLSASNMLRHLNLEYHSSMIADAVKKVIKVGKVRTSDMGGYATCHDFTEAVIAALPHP

Row | stoichiometry N [2] | stoichiometry N [3] | Binder | stoichiometry N [1]
1 |  |  | mutant α_(Y126F)βαγ heterotetramer of human NAD-dependent isocitrate dehydrogenase (complex) chain 1: TGGVQTVTLIPGDGIGPEISAAVMKIFDAAKAPIQWEERNVTAIQGPGGKWMIPSEAKESMDKNKMGLKGPLKTPIAAGHPSMNLLLRKTFDLYANVRPCVSIEGYKTPYTDVNIVTIRENTEGEFSGIEHVIVDGVVQSIKLITEGASKRIAEFAFEYARNNHRSNVTAVHKANIMRMSDGLFLQKCREVAESCKDIKFNEMYLDTVCLNMVQDPSQFDVLVMPNLYGDILSDLCAGLIGGLGVTPSGNIGANGVAIFESVHGTAPDIAGKDMANPTALLLSAVMMLRHMGLFDHAARIEAACFATIKDGKSLTKDLGGNAKCSDFTEEICRRVKDLD chain 2: not shown chain 3: TGGVQTVTLIPGDGIGPEISAAVMKIFDAAKAPIQWEERNVTAIQGPGGKWMIPSEAKESMDKNKMGLKGPLKTPIAAGHPSMNLLLRKTFDLYANVRPCVSIEGYKTPYTDVNIVTIRENTEGEYSGIEHVIVDGVVQSIKLITEGASKRIAEFAFEYARNNHRSNVTAVHKANIMRMSDGLFLQKCREVAESCKDIKFNEMYLDTVCLNMVQDPSQFDVLVMPNLYGDILSDLCAGLIGGLGVTPSGNIGANGVAIFESVHGTAPDIAGKDMANPTALLLSAVMMLRHMGLFDHAARIEAACFATIKDGKSLTKDLGGNAKCSDFTEEICRRVKDLD chain 4: FSEQTIPPSAKYGGRHTVTMIPGDGIGPELMLHVKSVFRHACVPVDFEEVHVSSNADEEDIRNAIMAIRRNRVALKGNIETNHNLPPSHKSRNNILRTSLDLYANVIHCKSLPGVVTRHKDIDILIVRENTEGEYSSLEHESVAGVVESLKIITKAKSLRIAEYAFKLAQESGRKKVTAVHKANIMKLGDGLFLQCCREVAARYPQITFENMIVDNTTMQLVSRPQQFDVMVMPNLYGNIVNNVCAGLVGGPGLVAGANYGHVYAVFETATRNTGKSIANKNIANPTATLLASCMMLDHLKLHSYATSIRKAVLASMDNENMHTPDIGGQGTTSEAIQDVIRHIRVINGRAVEA | 2
2 | 1 | 1 | α subunit of human NAD-dependent isocitrate dehydrogenase (natural protein, UniProt P50213 28-366, looked up, α subunit of human NAD-IDH (IDH3A); the N-terminal 27 residues (mitochondrial signal peptide) were removed during construction; cloned in the co-expression vector pQlinkN; gene bought from FulenGen in pReceiver-B01/B02; also called IDH3A; catalytic subunit) TGGVQTVTLIPGDGIGPEISAAVMKIFDAAKAPIQWEERNVTAIQGPGGKWMIPSEAKESMDKNKMGLKGPLKTPIAAGHPSMNLLLRKTFDLYANVRPCVSIEGYKTPYTDVNIVTIRENTEGEYSGIEHVIVDGVVQSIKLITEGASKRIAEFAFEYARNNHRSNVTAVHKANIMRMSDGLFLQKCREVAESCKDIKFNEMYLDTVCLNMVQDPSQFDVLVMPNLYGDILSDLCAGLIGGLGVTPSGNIGANGVAIFESVHGTAPDIAGKDMANPTALLLSAVMMLRHMGLFDHAARIEAACFATIKDGKSLTKDLGGNAKCSDFTEEICRRVKDLD | 
3 |  |  | mutant αβα_(Y126F)γ heterotetramer of human NAD-dependent isocitrate dehydrogenase (complex) chain 1: TGGVQTVTLIPGDGIGPEISAAVMKIFDAAKAPIQWEERNVTAIQGPGGKWMIPSEAKESMDKNKMGLKGPLKTPIAAGHPSMNLLLRKTFDLYANVRPCVSIEGYKTPYTDVNIVTIRENTEGEYSGIEHVIVDGVVQSIKLITEGASKRIAEFAFEYARNNHRSNVTAVHKANIMRMSDGLFLQKCREVAESCKDIKFNEMYLDTVCLNMVQDPSQFDVLVMPNLYGDILSDLCAGLIGGLGVTPSGNIGANGVAIFESVHGTAPDIAGKDMANPTALLLSAVMMLRHMGLFDHAARIEAACFATIKDGKSLTKDLGGNAKCSDFTEEICRRVKDLD chain 2: not shown chain 3: TGGVQTVTLIPGDGIGPEISAAVMKIFDAAKAPIQWEERNVTAIQGPGGKWMIPSEAKESMDKNKMGLKGPLKTPIAAGHPSMNLLLRKTFDLYANVRPCVSIEGYKTPYTDVNIVTIRENTEGEFSGIEHVIVDGVVQSIKLITEGASKRIAEFAFEYARNNHRSNVTAVHKANIMRMSDGLFLQKCREVAESCKDIKFNEMYLDTVCLNMVQDPSQFDVLVMPNLYGDILSDLCAGLIGGLGVTPSGNIGANGVAIFESVHGTAPDIAGKDMANPTALLLSAVMMLRHMGLFDHAARIEAACFATIKDGKSLTKDLGGNAKCSDFTEEICRRVKDLD chain 4: FSEQTIPPSAKYGGRHTVTMIPGDGIGPELMLHVKSVFRHACVPVDFEEVHVSSNADEEDIRNAIMAIRRNRVALKGNIETNHNLPPSHKSRNNILRTSLDLYANVIHCKSLPGVVTRHKDIDILIVRENTEGEYSSLEHESVAGVVESLKIITKAKSLRIAEYAFKLAQESGRKKVTAVHKANIMKLGDGLFLQCCREVAARYPQITFENMIVDNTTMQLVSRPQQFDVMVMPNLYGNIVNNVCAGLVGGPGLVAGANYGHVYAVFETATRNTGKSIANKNIANPTATLLASCMMLDHLKLHSYATSIRKAVLASMDNENMHTPDIGGQGTTSEAIQDVIRHIRVINGRAVEA | 2
